Measurements: US20140274782A1, “AFFINITY REAGENTS AND METHODS FOR DETECTION, PURIFICATION, AND PROTEOMIC ANALYSIS OF METHYLATED PROTEINS” (The Board of Trustees of the Leland Stanford Junior …, priority 2013, published 2014)

Tests used:
G9a and GLP = target: T1, G9a and GLP (Homo sapiens, UniProt Q96KQ7+Q9H9B1); assay: Triple SILAC pull-down after UNC0638 treatment of 293T cells, DMSO/UNC0638 ratio of protein captured by 3×MBT; assay type: cell-based; set-up: endogenous in cells; host or cells: HEK 293T; settings: all values in log base 2; for Relative to UNC0638 UNC Heavy / Relative to UNC0638 UNC Light: SILAC ratio DMSO relative to UNC0638, pull-down with 3xMBT; for Relative to UNC0638 UNC Heavy: UNC0638 in heavy SILAC media; for Relative to UNC0638 UNC Light: UNC0638 in light SILAC media; for Relative to UNC0638 Average: average of UNC Light and UNC Heavy experiments;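 for all read-outs here: mass spectrometry (Q-Exactive) SILAC quantitation, DMSO/UNC0638 ratio computed after subtracting 3×MBTD355N mutant pull-down background, only proteins with at least twofold 3×MBT over mutant signal considered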
T1 sequence (Q96KQ7 2-1210 limits assumed): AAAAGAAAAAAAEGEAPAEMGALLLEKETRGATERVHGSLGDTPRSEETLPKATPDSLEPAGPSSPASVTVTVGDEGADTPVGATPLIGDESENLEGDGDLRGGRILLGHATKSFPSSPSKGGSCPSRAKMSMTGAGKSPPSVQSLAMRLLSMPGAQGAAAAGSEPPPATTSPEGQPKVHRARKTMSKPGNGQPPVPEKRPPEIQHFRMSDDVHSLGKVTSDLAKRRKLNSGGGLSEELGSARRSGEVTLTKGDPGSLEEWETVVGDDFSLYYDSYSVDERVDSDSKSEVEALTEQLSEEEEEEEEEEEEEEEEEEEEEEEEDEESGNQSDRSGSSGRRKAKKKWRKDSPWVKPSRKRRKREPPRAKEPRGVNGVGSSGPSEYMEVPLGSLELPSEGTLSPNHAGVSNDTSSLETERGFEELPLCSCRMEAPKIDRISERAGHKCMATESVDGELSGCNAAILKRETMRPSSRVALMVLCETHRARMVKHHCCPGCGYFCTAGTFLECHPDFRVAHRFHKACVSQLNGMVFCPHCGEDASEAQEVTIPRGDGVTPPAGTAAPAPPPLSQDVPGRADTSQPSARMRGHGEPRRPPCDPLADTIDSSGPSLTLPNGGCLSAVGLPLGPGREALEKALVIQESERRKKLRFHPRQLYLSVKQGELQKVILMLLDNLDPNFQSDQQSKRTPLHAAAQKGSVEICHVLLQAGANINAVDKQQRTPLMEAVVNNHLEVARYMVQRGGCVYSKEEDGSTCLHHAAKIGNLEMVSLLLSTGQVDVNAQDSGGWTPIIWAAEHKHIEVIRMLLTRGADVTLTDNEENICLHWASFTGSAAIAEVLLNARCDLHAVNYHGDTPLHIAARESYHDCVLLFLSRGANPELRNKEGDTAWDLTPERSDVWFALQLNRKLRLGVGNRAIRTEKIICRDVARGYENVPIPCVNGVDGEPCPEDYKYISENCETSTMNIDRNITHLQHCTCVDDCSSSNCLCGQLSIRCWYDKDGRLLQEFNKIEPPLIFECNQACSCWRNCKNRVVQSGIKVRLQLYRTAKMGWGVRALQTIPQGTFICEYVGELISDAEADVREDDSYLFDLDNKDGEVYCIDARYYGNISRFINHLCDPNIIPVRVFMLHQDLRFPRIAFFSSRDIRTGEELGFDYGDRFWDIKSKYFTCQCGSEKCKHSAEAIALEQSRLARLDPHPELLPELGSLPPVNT
T1 sequence (Q9H9B1 2-1298 limits assumed): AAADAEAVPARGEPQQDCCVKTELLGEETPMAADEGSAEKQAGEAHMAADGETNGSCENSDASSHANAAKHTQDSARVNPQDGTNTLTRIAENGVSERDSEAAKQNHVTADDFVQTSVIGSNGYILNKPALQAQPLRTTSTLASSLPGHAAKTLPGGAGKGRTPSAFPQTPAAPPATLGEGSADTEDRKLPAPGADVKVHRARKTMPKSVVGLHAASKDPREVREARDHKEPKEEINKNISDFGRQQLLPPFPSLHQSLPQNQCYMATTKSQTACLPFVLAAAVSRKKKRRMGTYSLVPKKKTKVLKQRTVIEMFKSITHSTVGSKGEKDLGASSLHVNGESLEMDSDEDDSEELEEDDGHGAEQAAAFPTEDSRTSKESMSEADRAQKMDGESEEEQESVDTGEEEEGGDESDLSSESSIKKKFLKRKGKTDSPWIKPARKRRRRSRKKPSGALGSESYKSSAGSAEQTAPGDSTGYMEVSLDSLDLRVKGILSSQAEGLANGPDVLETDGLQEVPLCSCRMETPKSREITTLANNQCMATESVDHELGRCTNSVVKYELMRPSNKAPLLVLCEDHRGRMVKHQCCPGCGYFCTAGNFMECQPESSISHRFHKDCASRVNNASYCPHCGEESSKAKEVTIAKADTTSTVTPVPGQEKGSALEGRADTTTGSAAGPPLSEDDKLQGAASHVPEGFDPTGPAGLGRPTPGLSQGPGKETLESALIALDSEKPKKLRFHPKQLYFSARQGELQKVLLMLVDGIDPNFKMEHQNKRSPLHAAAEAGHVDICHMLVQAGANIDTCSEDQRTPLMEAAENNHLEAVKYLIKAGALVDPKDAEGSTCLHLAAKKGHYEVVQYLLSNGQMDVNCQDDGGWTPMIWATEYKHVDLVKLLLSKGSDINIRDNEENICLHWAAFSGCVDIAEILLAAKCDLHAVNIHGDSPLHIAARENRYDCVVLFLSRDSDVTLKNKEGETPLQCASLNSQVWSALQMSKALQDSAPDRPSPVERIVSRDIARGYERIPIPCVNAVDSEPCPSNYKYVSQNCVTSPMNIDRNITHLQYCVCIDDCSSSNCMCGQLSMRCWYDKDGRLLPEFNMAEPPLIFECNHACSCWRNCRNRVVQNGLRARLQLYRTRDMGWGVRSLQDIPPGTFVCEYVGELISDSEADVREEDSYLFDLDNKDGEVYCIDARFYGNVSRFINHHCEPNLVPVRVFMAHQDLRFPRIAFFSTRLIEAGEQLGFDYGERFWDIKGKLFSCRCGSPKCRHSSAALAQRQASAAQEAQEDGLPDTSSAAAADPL

3×MBT domain of L3MBTL1 = assay: Triple SILAC pull-down, 3xMBT/3xMBTD355N ratio (cytoplasmic, nuclear and chromatin fractions of 293T cells); assay type: binding, human; settings: SILAC ratio 3xMBT vs 3xMBTD355N pull-down, 293T cells, all values in log base 2; for 3xMBT/D355N UNC Heavy: experiment with UNC0638 in heavy SILAC media; for 3xMBT/D355N UNC Light: experiment with UNC0638 in light SILAC media;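 for all read-outs here: proteins quantified with MaxQuant, requiring at least two unique peptides and quantification in both label directions, normalized to the mean of proteins from a digested loading control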

Row | Molecule | Relative to UNC0638 UNC Heavy (G9a and GLP) [log base 2] | Relative to UNC0638 UNC Light (G9a and GLP) [log base 2] | Relative to UNC0638 Average (G9a and GLP) [log base 2] | 3xMBT/D355N UNC Heavy (3×MBT domain of L3MBTL1) [log base 2] | 3xMBT/D355N UNC Light (3×MBT domain of L3MBTL1) [log base 2]
1 | SHKBP1 (protein, UniProt Q8TBC3 2-707, looked up) SH3KBP1-binding protein 1: AAAATAAEGVPSRGPPGEVIHLNVGGKRFSTSRQTLTWIPDSFFSSLLSGRISTLKDETGAIFIDRDPTVFAPILNFLRTKELDPRGVHGSSLLHEAQFYGLTPLVRRLQLREELDRSSCGNVLFNGYLPPPVFPVKRRNRHSLVGPQQLGGRPAPVRRSNTMPPNLGNAGLLGRMLDEKTPPSPSGQPEEPGMVRLVCGHHNWIAVAYTQFLVCYRLKEASGWQLVFSSPRLDWPIERLALTARVHGGALGEHDKMVAAATGSEILLWALQAEGGGSEIGVFHLGVPVEALFFVGNQLIATSHTGRIGVWNAVTKHWQVQEVQPITSYDAAGSFLLLGCNNGSIYYVDVQKFPLRMKDNDLLVSELYRDPAEDGVTALSVYLTPKTSDSGNWIEIAYGTSSGGVRVIVQHPETVGSGPQLFQTFTVHRSPVTKIMLSEKHLISVCADNNHVRTWSVTRFRGMISTQPGSTPLASFKILALESADGHGGCSAGNDIGPYGERDDQQVFIQKVVPSASQLFVRLSSTGQRVCSVRSVDGSPTTAFTVLECEGSRRLGSRPRRYLLTGQANGSLAMWDLTTAMDGLGQAPAGGLTEQELMEQLEHCELAPPAPSAPSWGCLPSPSPRISLTSLHSASSNTSLSGHRGSPSPPQAEARRRGGGSFVERCQELVRSGPDLRRPPTPAPWPSSGLGTPLTPPKMKLNETSF | 0.71 | −0.94 | −0.12 | 2.90 | 2.73
2 | NCBP1 (protein, UniProt Q09161 1-790, looked up) Nuclear cap-binding protein …: MSRRRHSDENDGGQPHKRRKTSDANETEDHLESLICKVGEKSACSLESNLEGLAGVLEADLPNYKSKILRLLCTVARLLPEKLTIYTTLVGLLNARNYNFGGEFVEAMIRQLKESLKANNYNEAVYLVRFLSDLVNCHVIAAPSMVAMFENFVSVTQEEDVPQVRRDWYVYAFLSSLPWVGKELYEKKDAEMDRIFANTESYLKRRQKTHVPMLQVWTADKPHPQEEYLDCLWAQIQKLKKDRWQERHILRPYLAFDSILCEALQHNLPPFTPPPHTEDSVYPMPRVIFRMFDYTDDPEGPVMPGSHSVERFVIEENLHCIIKSHWKERKTCAAQLVSYPGKNKIPLNYHIVEVIFAELFQLPAPPHIDVMYTTLLIELCKLQPGSLPQVLAQATEMLYMRLDTMNTTCVDRFINWFSHHLSNFQFRWSWEDWSDCLSQDPESPKPKFVREVLEKCMRLSYHQRILDIVPPTFSALCPANPTCIYKYGDESSNSLPGHSVALCLAVAFKSKATNDEIFSILKDVPNPNQDDDDDEGFSFNPLKIEVFVQTLLHLAAKSFSHSFSALAKFHEVFKTLAESDEGKLHVLRVMFEVWRNHPQMIAVLVDKMIRTQIVDCAAVANWIFSSELSRDFTRLFVWEILHSTIRKMNKHVLKIQKELEEAKEKLARQHKRRSDDDDRSSDRKDGVLEEQIERLQEKVESAQSEQKNLFLVIFQRFIMILTEHLVRCETDGTSVLTPWYKNCIERLQQIFLQHHQIIQQYMVTLENLLFTAELDPHILAVFQQFCALQA | −0.32 | 0.11 | −0.11 | 1.27 | 2.23
3 | BAZ1B (protein, UniProt Q9UIG0 1-1483, looked up) Tyrosine-protein kinase BAZ1B: MAPLLGRKPFPLVKPLPGEEPLFTIPHTQEAFRTREEYEARLERYSERIWTCKSTGSSQLTHKEAWEEEQEVAELLKEEFPAWYEKLVLEMVHHNTASLEKLVDTAWLEIMTKYAVGEECDFEVGKEKMLKVKIVKIHPLEKVDEEATEKKSDGACDSPSSDKENSSQIAQDHQKKETVVKEDEGRRESINDRARRSPRKLPTSLKKGERKWAPPKFLPHKYDVKLQNEDKIISNVPADSLIRTERPPNKEIVRYFIRHNALRAGTGENAPWVVEDELVKKYSLPSKFSDFLLDPYKYMTLNPSTKRKNTGSPDRKPSKKSKTDNSSLSSPLNPKLWCHVHLKKSLSGSPLKVKNSKNSKSPEEHLEEMMKMMSPNKLHTNFHIPKKGPPAKKPGKHSDKPLKAKGRSKGILNGQKSTGNSKSPKKGLKTPKTKMKQMTLLDMAKGTQKMTRAPRNSGGTPRTSSKPHKHLPPAALHLIAYYKENKDREDKRSALSCVISKTARLLSSEDRARLPEELRSLVQKRYELLEHKKRWASMSEEQRKEYLKKKREELKKKLKEKAKERREKEMLERLEKQKRYEDQELTGKNLPAFRLVDTPEGLPNTLFGDVAMVVEFLSCYSGLLLPDAQYPITAVSLMEALSADKGGFLYLNRVLVILLQTLLQDEIAEDYGELGMKLSEIPLTLHSVSELVRLCLRRSDVQEESEGSDTDDNKDSAAFEDNEVQDEFLEKLETSEFFELTSEEKLQILTALCHRILMTYSVQDHMETRQQMSAELWKERLAVLKEENDKKRAEKQKRKEMEAKNKENGKVENGLGKTDRKKEIVKFEPQVDTEAEDMISAVKSRRLLAIQAKKEREIQEREMKVKLERQAEEERIRKHKAAAEKAFQEGIAKAKLVMRRTPIGTDRNHNRYWLFSDEVPGLFIEKGWVHDSIDYRFNHHCKDHTVSGDEDYCPRSKKANLGKNASMNTQHGTATEVAVETTTPKQGQNLWFLCDSQKELDELLNCLHPQGIRESQLKERLEKRYQDIIHSIHLARKPNLGLKSCDGNQELLNFLRSDLIEVATRLQKGGLGYVEETSEFEARVISLEKLKDFGECVIALQASVIKKFLQGFMAPKQKRRKLQSEDSAKTEEVDEEKKMVEEAKVASALEKWKTAIREAQTFSRMHVLLGMLDACIKWDMSAENARCKVCRKKGEDDKLILCDECNKAFHLFCLRPALYEVPDGEWQCPACQPATARRNSRGRNYTEESASEDSEDDESDEEEEEEEEEEEEEDYEVAGLRLRPRKTIRGKHSVIPPAARSGRRPGKKPHSTRRSQPKAPPVDDAEVDELVLQTKRSSRRQSLELQKCEEILHKIVKYRFSWPFREPVTRDEAEDYYDVITHPMDFQTVQNKCSCGSYRSVQEFLTDMKQVFTNAEVYNCRGSHVLSCMVKTEQCLVALLHKHLPGHPYVRRKRKKFPDRLAEDEGDSEPEAVGQSRGRRQKK | 0.14 | −0.38 | −0.12 | 1.37 | 0.19
